{"source": "the DeepSol protein solubility set", "data": [{"test": "soluble on expression in E. coli; label from the status in PepcDB or PDB records", "values": [{"sequence": "MSTTKKGDTYNEAWVKDTNGFDILMGQFAHNIENIWGFKEVVIAGPKDYVKYTDQYQTRSHINFDDGTITIETIAGTEPAAHLRRAIIKTLLMGDDPSSVDLYSDVDDITISKEPFLYGQVVDNTGQPIRWEGRASNFADYLLKNRLKSRSNGLRIIYSVTINMVPNHLDKRAHKYLGMVRQASRKYGVDESLILAIMQTESSFNPYAVSRSDALGLMQVVQHTAGKDVFRSQGKSGTPSRSFLFDPASNIDTGTAYLAMLNNVYLGGIDNPTSRRYAVITAYNGGAGSVLRVFSNDKIQAANIINTMTPGDVYQTLTTRHPSAESRRYLYKVNTAQKSYRRRLEHHHHHH", "soluble on expression in E. coli": "soluble"}, {"sequence": "MSLTAPLEWKQANFLSISDSHGWLLGHQHSTWPEPNYSGNYGSFASFVIHMRKIADEKGVDLLLIDAGDHHDGSGLVSSSPDSASLAEDIFSMISYDVITIGNHELYHYADALDIYENHERWGGRYVTSNVNITVKREGEWQSVPIGQTHLKFTTKQGYNVTAFGVIFDFKAHDKGITVQKPSKLVHEPWFQEAIRDAPDYFILAGHMPVRGETAEFAPVFDAIRDIHPQVPIFLFGGHTHVRDCVQYDERSIGVVPGKYLETVAFTSSSLPSSSGDDRPLDVARSYQWHTNQTSYTFDTEGHHHHHH", "soluble on expression in E. coli": "soluble"}, {"sequence": "MSLAGTIAIKNGYVFDPLNEINGEKMDIFIRDGKVVKELSASEMKTSRVIDASGMTVMPGGVDSHSHVAGAKVNAGRSMRPEDHYKANLKKTPLTHSGSGYTVPSVYKQGYDYAAMGYTTVFEAAVPPLEARHTHEEMRATPLLDMGGYLVLGNNFFLMRYLRDGDMEKAAAYVAWMMKTHKTYGIKCVNPAGVENWAWGKNVSTLDETNIHFEITPREVIKGLTEVNETLGMPMPVHLHANNLGHPGCYAITKDSLKIPDGVKTKQNMAVEWAETKMDLSRDRSVYLTHLMFNSFAGTTWGDCESGVKDIADYINNKDHVVIDSGCTPFGEATVMTGDGPAIHDLYTLTGNKWSNTDVEMECGSGVLPFTYLKSNPVHSLQWAMGLECLLLIKDPWKTIMTTDSPNGGPFTKYPEVMTWIMSEAFRKQTFSECHKWANDRSELGGINRELSLYDLAILTRANPAKTIGMAHRKGSLGVGADGDVTVYNINPQQLDANNYEALLRTFRKAEYTVKGGEIVAVKGEIVSLPEKRTYYSEVHVENEREKEMLVDVKEWFRYYTLGFANYSTPEKYLANPTPIQVNSEGHHHHHH", "soluble on expression in E. coli": "not soluble"}, {"sequence": "MALPKFELLSLADNTVGWGPLASSSSADEPVPFQQFNKADRIGRVADWIGVDRFYRRGNERYNERVYGSAANAGSQFDYIHGMDEHNFQLVDTSKPMARNPQRNFRVRQMHLRKMMQKENEKREMVNQSTNLRMKRSIAKEQQRAFKMWQRRGGNARQGQRGQGGRFGGDRPKERLPSVQVRPEWVVLEEMNLSAFSKLALPNIPGGDDIGDHQYGSLQYYDKTIDRVSVKNSIPLQRCAGVFYNVTTTEDPVIQELAQGGAGNVFGTDIILATLMTAPRSVYSWDIVAYRVGDKLFFDKRNTRDILNPVETLTVSETSAEPPSFDGNGINNAKDLATEAFYINQNFRRQVVKRNDAGFTFKNARAPFEDEETGESGTAYKYRKWNLGNGVDGKPVELVCRTELDGVIHGLGNETQTLTIKAFNEWDSTQSGGVDWRTKLDVQKGAVMATEIKNNSAKVAKWTLQALLAGSDTMKLGYVSRNNARSTQNHSILLTQYVKPTEFASNIALNMDNCWGILRCVIDSCMKQKPGKYLLMKDPQSPVIRLYSLPEGTFESERESSDEENSDDDQ", "soluble on expression in E. coli": "not soluble"}, {"sequence": "AMNLIFLGTSAGVPTRTRNVTAILLNLQHPTQSGLWLFDCGEGTQHQLLHTAFNPGKLDKIFISHLHGDHLFGLPGLLCSRSMSGIIQPLTIYGPQGIREFVETALRISGSWTDYPLEIVEIGAGEILDDGLRKVTAYPLEHPLECYGYRIEEHDAPGALNAQALKAAGVPPGPLFQELKAGKTITLEDGRQINGADYLAAPVPGKALAIFGDTGPCDAALDLAKGVDVMVHEATLDITMEAKANSRGHSSTRQAATLAREAGVGKLIITHVSSRYDDKGCQHLLRECRSIFPATELANDFTVFNV", "soluble on expression in E. coli": "soluble"}, {"sequence": "RSEYVAPRSVWEARLAQVWEQVLNVPQVGALDDFFALGGHSLRAMRVLSSMHNEYQVDIPLRILFEKPTIQELAAFIEETAKGNVFSIEPVQKQAYYPVSSAQKRMYILDQFEGVGISYNMPSTMLIEGKLERTRVEAAFQRLIARHESLRTSFAVVNGEPVQNIHEDVPFALAYSEVTEEEARELVSSLVQPFDLEVAPLIRVSLLKIGEDRYVLFTDMHHSISDGVSSGILLAEWVQLYQGDVLPELRIQYKDFAVWQQEFSQSAAFHKQEAYWLQTFADDIPVLNLPTDFTRPSTQSFAGDQCTIGAGKALTEGLHQLAQATGTTLYMVLLAAYNVLLAKYAGQEDIIVGTPITGRSHADLEPIVGMFVNTLAMRNKPQREKTFSEFLQEVKQNALDAYGHQDYPFEELVEKLAIARDLSRNPLFDTVFTFQNSTEEVMTLPECTLAPFMTDETGQHAKFDLTFSATEEREEMTIGVEYSTSLFTRETMERFSRHFLTIAASIVQNPHIRLGEIDML", "soluble on expression in E. coli": "soluble"}, {"sequence": "MQSSNGEHHQQKQTPYFMNAPCDPALLALAQQTFLGFQPQKNMYQHGFPPMLPHRNLIPSLAAAIPEMDKLMLEEPIEAGSMPYRRATNKNISVSDDSFNNMHRSSSSSQYRRHSAQWETMTDDERESVQRQKRKEEAFKTALCDAFKRSGSCPYGEACRFAHGENELRMPSQPRGKAHPKYKTQLCDKFSNFGQCPYGPRCQFIHKLKKGLPLSEYNRALQEGEISPARDDEITNPDESSSQVEDLSELHHRQHQQQQQYQQRYRRPPFNNFHDMSDSGYSAPRRRLHHQFEHLGSEQQQQQQQQTPAPKIVYPSMQVVNIEMATGDGPKRSDNHHYHHHHHQRRHIPAPPSTGPLSSLIDQADYEASMASGKMFGKPENIRTYGAMIRANEEHVERNQTGVVKKERATVLPKRDLSLIREEDTLLVDGSHLNMTSSAILPAHQIPSTTTTSTSSPVQEQPWYEKIFGKMTMIQEESSMGGEDDDAHEDHYSR", "soluble on expression in E. coli": "not soluble"}, {"sequence": "MNSDAEMNTEDGGSSPEEFGEADCFSEEEDEEIVLDTSDNDTSYAKEDKKSENEVLDNDLLEAEMNTTIADVQAVLQVDPGVCRILLHKYKWNKESLLERLYEHPDTIAFLIDAQVIPRQQEVIPAGDAECDICCSMDELSGLSCNHRACAECWQAYLTNKIVSDAQSEIECMAPNCKLLIEDEKVLAYIKDPTIIAKYRKMMVASYIEINALLKWCPGVDCGRTVKVSHGEPRLVVCTCGSRFCFSCGQDWHEPVNCRLLKLWMKKCNDDSETSNWINSNTKECPKCMATIEKNGGCNQITCKNTGCKFQFCWMCLGPWTVHANAWYKCNKFDDEASQTARTAQELYRANLTRYLFYYNRYMGHLQSLRLEGKLNKTVKAKMDQMQNLSMSWIDVQFLRKAVDVLSECRNTLMFTYIFAFYLKRDNNSMIFESNQKDLEMETEQLSGLLERDLENEDLLTLKQKVQDTFRYVEHRRKVLLDHCAEGTEQDIWQYNE", "soluble on expression in E. coli": "not soluble"}, {"sequence": "MSLNLATLQSQFAKALHYQALGEDCDIASDEFTADERIQIYRNNFIVSLSEVLSATYPMVEALLGEECFEQIARQHVLSYPLKEGNVVHYGEGFQDTIMQFSQVIAQAPYSPEVARFEWHIDLARQAQYEQSNAAELKPLALLGEVSEEQQPALVLHLKKGCRSFDSNYAVFDLFSAIQTGQFEQLNINQLQQGVISIQANGEALCHALDADVFQLLQCLEQKQSLSEIPEVLLAHLNRIMALDIVDGFTLQSIEGHHHHHH", "soluble on expression in E. coli": "soluble"}, {"sequence": "MNKPTLGIDLDTTLNTLDREWVKRYNEIYKDKLLPSDIKGWDIENYVKPECGKKIYDILKEPHFFRNLGVQPFAETALEELTSIFNIYIVSATHYKVCEDKGNWIKEKFPFISYQNIIFCHNKGLVHLDILIDDNPLNLENFKGNKILFDAHHNKSENRFVRARDWYEAKALCESLKDFL", "soluble on expression in E. coli": "not soluble"}]}]}
